Publication PMC12115182, “Inhibition of RPA32 and Cytotoxic Effects of the Carnivorous Plant Sarracenia purpurea Root Extract in Non-Small-Cell Lung Cancer Cells”

Target: huRPA32 (human RPA32) (human, UniProt P15927 1-270)
Experiment: EMSA; [Protein]50 by linear interpolation; DNA 30 fmol/uL; no extract; 40 mM Tris-HCl pH 7.5, 50 mM NaCl, 37 C, 60 min; 8% native PAGE in TBE, 100 V 1 h
Settings: protein: recombinant; single-stranded

Chain of huRPA32 (human RPA32) (P15927 whole entry): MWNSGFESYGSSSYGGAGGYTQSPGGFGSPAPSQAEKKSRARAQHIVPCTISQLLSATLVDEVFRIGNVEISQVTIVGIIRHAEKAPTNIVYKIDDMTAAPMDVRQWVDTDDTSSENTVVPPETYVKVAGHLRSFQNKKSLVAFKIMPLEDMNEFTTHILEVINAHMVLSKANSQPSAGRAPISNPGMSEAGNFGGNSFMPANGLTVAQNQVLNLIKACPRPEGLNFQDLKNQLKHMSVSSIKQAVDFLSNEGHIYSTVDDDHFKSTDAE

B1: dT25 (ssDNA)
DNA: TTTTTTTTTTTTTTTTTTTTTTTTT
apparent K (half saturation): 5.7 ± 0.6 µM
